Data on three compounds can be found in publication PMC4741518, “Adaptive Remodeling of the Bacterial Proteome by Specific Ribosomal Modification Regulates Pseudomonas Infection and Niche Colonisation” (PLoS Genetics, 2016).

The target in one assay is T1, RimA (Pseudomonas fluorescens, UniProt A0ACD4XU64).
T1 construct: gene U0037_01330; full-length, His6-tagged (pETM11-rimA), E. coli BL21(DE3) pLysS, Ni-NTA purified
The assay is described as follows: phosphodiesterase assay, TLC of […]-cdG. In kind it is biochemical. Particulars: labelled compound (100 μM cdG with 0.07 μM 32P-cdG); 10 mM MgCl2, pH 8.0, 30 °C; product pGpG.

Assay [1] addresses Ribosomal protein S6 modification protein RimK (P. fluorescens SBW25).

Ribosomal protein S6 modification protein RimK (P. fluorescens SBW25), sequence (C3KE61 whole entry): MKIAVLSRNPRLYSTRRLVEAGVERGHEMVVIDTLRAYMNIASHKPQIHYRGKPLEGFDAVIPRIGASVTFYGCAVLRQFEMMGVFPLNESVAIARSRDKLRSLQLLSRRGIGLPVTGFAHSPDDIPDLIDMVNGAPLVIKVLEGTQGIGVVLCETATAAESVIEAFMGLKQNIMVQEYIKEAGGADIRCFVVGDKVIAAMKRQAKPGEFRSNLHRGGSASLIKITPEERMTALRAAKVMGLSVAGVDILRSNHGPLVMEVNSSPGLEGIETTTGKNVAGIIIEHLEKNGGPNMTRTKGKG
T1 sequence (A0ACD4XU64 entry or part of it): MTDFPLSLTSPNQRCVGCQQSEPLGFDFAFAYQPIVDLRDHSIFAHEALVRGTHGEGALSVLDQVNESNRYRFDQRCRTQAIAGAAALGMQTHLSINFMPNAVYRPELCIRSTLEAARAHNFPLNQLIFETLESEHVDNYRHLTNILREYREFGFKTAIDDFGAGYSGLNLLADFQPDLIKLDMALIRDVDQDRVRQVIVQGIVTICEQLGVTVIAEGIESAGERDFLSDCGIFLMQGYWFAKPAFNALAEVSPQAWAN

For the compound `Nc1nc2c(ncn2[C@@H]2O[C@@H]3COP(=O)(O)O[C@H]4[C@@H](O)[C@H](n5cnc6c(=O)[nH]c(N)nc65)O[C@@H]4COP(=O)(O)O[C@H]3[C@H]2O)c(=O)[nH]1` [cdG], the “phosphodiesterase assay, TLC of 32P-cdG” value at RimA was “RimA PDE activity was subsequently confirmed (Fig 4C)”.

In assay [1], “Conserved EAL domain protein RimA (enzyme)” registered a RimKPf ATPase activity (linked PK/LDH assay, with glutamate): Vmax on addition of purified RimA; 234.9 without RimA of 364 nmol/min/mg.

In the case of “Putative uncharacterized protein RimB (natural protein)”, the RimKPf ATPase activity (linked PK/LDH assay, with glutamate): Vmax on addition of purified RimB; 113.6 without RimB in assay [1] was 691 nmol/min/mg.
